Positions count from the first letter of the chain named. No end group written: not given here.
T1: GLP-1R Y145A (Homo sapiens)
T1 chain: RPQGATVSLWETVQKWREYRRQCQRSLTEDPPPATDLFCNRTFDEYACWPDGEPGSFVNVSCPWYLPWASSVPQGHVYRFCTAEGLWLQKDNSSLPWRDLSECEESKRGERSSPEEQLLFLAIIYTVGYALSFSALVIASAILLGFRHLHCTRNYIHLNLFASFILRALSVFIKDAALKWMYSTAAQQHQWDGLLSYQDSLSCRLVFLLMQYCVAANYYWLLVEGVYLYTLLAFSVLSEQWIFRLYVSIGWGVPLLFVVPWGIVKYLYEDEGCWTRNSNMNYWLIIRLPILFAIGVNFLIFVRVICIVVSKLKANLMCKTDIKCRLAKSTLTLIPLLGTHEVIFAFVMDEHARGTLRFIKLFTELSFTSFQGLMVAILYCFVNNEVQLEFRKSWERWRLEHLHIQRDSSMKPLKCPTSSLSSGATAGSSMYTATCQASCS

T2: GLP-1R L142A (Homo sapiens)
T2 chain: T1 chain with L119A, A122Y

T3: GLP-1R Q210A (Homo sapiens)
T3 chain: T1 chain with A122Y, Q187A

T4: GLP-1R H212A (Homo sapiens)
T4 chain: T1 chain with A122Y, H189A

T5: GLP-1R Y205A (Homo sapiens)
T5 chain: T1 chain with A122Y, Y182A

B1: oxyntomodulin (peptide)
peptide: HSQGTFTSDYSKYLDSRRAQDFVQWLMNTKRNRNNIA
B2: glucagon-like peptide-1 (peptide)
chain: HAEGTFTSDVSSYLEGQAAKEFIAWLVKGR
modifications: not fully specified (C-terminus)

How the values were obtained:
GLP-1R Y145A = target: T1, GLP-1R Y145A
GLP-1R L142A = target: T2, GLP-1R L142A
GLP-1R Q210A = target: T3, GLP-1R Q210A
GLP-1R H212A = target: T4, GLP-1R H212A
GLP-1R Y205A = target: T5, GLP-1R Y205A

Binder | IC50 (GLP-1R Y145A) [nM] | IC50 (GLP-1R L142A) [nM] | IC50 (GLP-1R Q210A) [nM] | IC50 (GLP-1R H212A) [nM] | IC50 (GLP-1R Y205A) [nM]
B1 | 24.5 | 81.3 | 66.1 | 12.9 | 36.3
B2 | 6.17 |  |  | 1.23 | 3.09
